Substitutions are numbered along the chain they refer to. Values belong to the binder of their own block, whether it stands above or below them.
Legend:
[1] = target: T1, Histidine-tagged INT-interacting MVP domains (His-iMVP), major vault protein domains 3 to 5; test: SPR; Biacore 3000, His-iMVP immobilised on CM5 (1010 RU), His-INT/DSA/3H injected at 0.12, 0.25 or 0.5 μM, 25 °C, pH 6.0; apparent constants; conditions: both partners purified
T1 construct: major vault protein (MVP), domains 3, 4 and 5 including the gap between domains 2 and 3, residues 102-276, PCR-amplified from the CP-MVP gene; numbers count on: PDB 2QZV; Cloned NdeI/BamHI in pET-28a; also called MVP domains 3 to 5; source: E. coli BL21(DE3), purified (HisTrap HP; SEC for SPR); not shown: His6, N-terminal, kept

[2] = target: T1, Histidine-tagged INT-interacting MVP …; test: SPR; Biacore 3000, His-iMVP amine-coupled to CM5 (410, 1860 or 1240 RU), His-INT or variant injected, 25 °C, 50 mM PBS, 150 mM NaCl, pH 7.4; 1-to-1 Langmuir fit; apparent constants; conditions: both partners purified
[3] = target: the molecule itself; test: SEC; His-INT alone at 0.05, 0.01 and 0.005 mM on Superdex 75 10/300 GL; dimer (D) and monomer (M) peaks; dimer to monomers

Kd [1]: 24 nM
koff [1]: 0.000258 s⁻¹
kon [1]: 10800 M⁻¹ s⁻¹
Kd [2]: 90 nM
koff [2]: 0.00134 s⁻¹
kon [2]: 14900 M⁻¹ s⁻¹
B1: His-INT/DSA/3H (His-INT with histidines substituted at the interaction surface) (domain or fragment)
chain: CIQHWQDAVPWTELLSLQTEDGFWKLTPELGLILNLNTNGLHSFLKQKGIQSLGVKGRECLLDLIATMLVLQFIRTRLEKEGIVFKSLMKMDDASISRNIPWAFEAIKQASEWVRRTEGQYPSICPRLELGNHWDHHTKQLLGLQPISTVSPLHRVLHYSQG

B2: Histidine-tagged vault-interacting domain of vault poly(ADP-ribose)-polymerase (His-INT) (domain or fragment, UniProt Q9UKK3 1563-1724, looked up)
chain: B1 chain with H133D, H136S, H137A
notes: vault poly(ADP-ribose)-polymerase (VPARP), C-terminal INT domain, residues 1563-1724 of GenBank AF158255; Cloned NdeI/XhoI in pET-28a; Monomer and dimer in equilibrium; also called wild-type INT; full-length His-INT; source: E. coli BL21(DE3), purified (HisTrap HP, SEC; M fraction used); not shown: His6, N-terminal, kept
stoichiometry N [3]: 2
